{"source": "paper PMC12752688", "key": {"[1]": {"target": "Trigger Factor (UniProt P0A850)", "experiment": "high-speed AFM (HS-AFM); TF alone at 5 uM on mica; projected area and height compared with monomers"}, "[2]": {"target": "ribosome-nascent chain complex (not stated | E. coli) (UniProt P0ADZ0)", "experiment": "high-speed AFM (HS-AFM); RNC (2 nM) on mica, TF (1 uM) in the imaging solution, physiological buffer; 1 frame/s, 22-25 °C; dwell time analysis of single binding events"}, "[3]": {"target": "native 70S ribosome from E. coli (E. coli) (UniProt P0ADZ0)", "experiment": "high-speed AFM (HS-AFM); 70S ribosomes without nascent chain partially immobilised on mica, TF in the imaging solution at a molar ratio of 200:1 TF:ribosome; 1 frame/s, 22-25 °C"}, "[4]": {"target": "Trigger factor (Escherichia coli) (UniProt P0A850)", "details": "cited from earlier work"}}, "data": [{"substance": "Trigger Factor (from UniProt P0A850 1-432) (natural protein)", "values": [{"measurement": "stoichiometry N", "setting": "[1]", "result": 2}, {"measurement": "duration of association", "setting": "[2]", "result": "> 5", "unit": "s"}, {"measurement": "duration of individual binding events", "setting": "[2]", "result": "> 30", "unit": "s"}, {"measurement": "longest interaction time (exit-tunnel site)", "setting": "[2]", "result": "< 80", "unit": "s"}, {"measurement": "longest interaction time (peripheral site)", "setting": "[2]", "result": "> 30", "unit": "s"}, {"measurement": "mean interaction time (exit-tunnel site)", "setting": "[2]", "result": 8, "unit": "s"}, {"measurement": "mean interaction time (peripheral site)", "setting": "[2]", "result": 3.9, "unit": "s"}, {"measurement": "stoichiometry N", "setting": "[2]", "result": 2}, {"measurement": "duration of association", "setting": "[3]", "result": "< 5", "unit": "s"}]}, {"substance": "Trigger factor (from UniProt P0A850)", "values": [{"measurement": "Kd", "setting": "[4]", "result": 1.5, "unit": "µM"}]}]}
